In the test the target is T1, EGFR on EGFR-positive SW480 cells (human, UniProt P00533 25-1210).
T1 construct: whole, on cells; also called epidermal growth factor receptor
Nature of the test: cell-based ELISA on EGFR-positive SW480 cells, around 2 hours after MMP2 treatment. As for the experimental part: Briefly, EGFR-positive SW480 cells or HER2-positive SKBr3 cells were seed on a 96-well plate by 10⁵ cells/well using 200 μl of growth medium (DMEM+10% CCS+1% P/S), and incubated at 37° C. overnight.
On the technique in general: An ELISA detects its analyte on a solid surface through an enzyme-linked reagent.

B1: MMP2-treated IgG1 hinge/MMP2/panitumumab (antibody, V domains shown, not shown: small tags and cut ends)
VH: QVQLVQSGAEVKKPGASVKVSCKASGYTFTSYWMHWVRQAPGQGLEWMGNIYPGSGGTNYAEKFKNRVTMTRDTSISTAYMELSRLRSDDTAVYYCARSGGPYFFDYWGQGTLVTVSS
VL: DIVMTQSPLSLPVTPGEPASISCRSSQNIVHNNGITYLEWYLQKPGQSPQLLIYKVSDRFSGVPDRFSGSGSGTDFTLKISRVEAEDVGVYYCFQGSHIPPTFGQGTKVEIKR
notes: m14 around 2 hours after MMP2 treatment
As for B1, the “antigen binding capability (% of parent antibody)” value was roughly 90%.

Source of the values: patent US20160185875A1 (DCB USA, published 2016).
